The values below come from JP2023110925A (dated 2023).

The assay addresses T1, アミロイドβ (antigen of the amyloid β ELISA) (UniProt P05067 672-713).
T1 construct: also called Aβ
Briefly: amyloid β ELISA, conditioned medium of transient transfection.

T1 sequence (P05067 672-713): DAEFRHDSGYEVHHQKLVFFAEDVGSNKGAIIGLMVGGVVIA

B1: C2 HuVH AF バージョン3 + キメラC2カッパ鎖 (transient) (antibody, name in Kabat numbering, V domains shown)
VH: EVQLVESGGGLVQPGGSLRLSCAASGFTFSSYGMSWVRQAPGKGLELVASINSNGGSTYYPDSVKGRFTISRDNAKNSLYLQMNSLRAEDTAVYYCARGDYWGQGTTVTVSS
VL: DVVMTQTPLSLPVSLGDQASISCRSSQSLVYSNGDTYLHWYLQKPGQSPKLLIYKVSNRFSGVPDRFSGSGSGTDFTLKISRVEAEDLGVYFCSQSTHVPWTFGGGTKLEIK
notes: Transient expression
Regarding B1, the binding result was “no binding”.
